{"source": "patent US20220195008A1", "about": "(published 2022)", "key": {"[1]": {"target": "T1, MAGE-A12 peptide on HLA-C*07:01 (human)", "T1 peptide": "VRIGHLYIL", "experiment": "killing"}, "[2]": {"target": "T2, MAGE-A12 peptide on HLA-C*07:02 (human)", "T2 peptide": "VRIGHLYIL", "experiment": "cytokine release"}, "[3]": {"target": "T1, MAGE-A12 peptide on HLA-C*07:01", "experiment": "cytokine release"}}}
{"binder": "anti-MAGE-A12 TCR 502 (TCR, V domains shown) Valpha: GENVEQHPSTLSVQEGDSAVIKCTYSDSASNYFPWYKQELGKRPQLIIDIRSNVGEKKDQRIAVTLNKTAKHFSLHITETQPEDSAVYFCAASGATDKLIFGTGTRLQVFP Vbeta: EADIYQTPRYLVIGTGKKITLECSQTMGHDKMYWYQQDPGMELHLIHYSYGVNSTEKGDLSSESTVSRIRTEHFPLTLESARPSHTSQYLCASSGGHEQYFGPGTRLTVT", "values": [{"measurement": "binding result", "setting": "[1]", "value": "recognises"}]}
{"binder": "anti-MAGE-A12 TCR FM8 (TCR, V domains shown) Valpha: AQTVTQSQPEMSVQEAETVTLSCTYDTSESDYYLFWYKQPPSRQMILVIRQEAYKQQNATENRFSVNFQKAAKSFSLKISDSQLGDAAMYFCAYRSAQGGSEKLVFGKGTKLTVNP Vbeta: ETGVTQTPRHLVMGMTNKKSLKCEQHLGHNAMYWYKQSAKKPLELMFVYSLEERVENNSVPSRFSPECPNSSHLFLHLHTLQPEDSALYLCASSQTTYYNEQFFGPGTRLTVL", "values": [{"measurement": "binding result", "setting": "[2]", "value": "recognises"}, {"measurement": "binding result", "setting": "[3]", "value": "no recognition"}]}
